Measurements: publication PMC4689412

Molecular target: AP-1 clathrin adaptor complex (UniProt O43747)
Experiment: GST pull-down, Western blot with anti-γ-adaptin, densitometry
Conditions: HeLa cell lysates; GST-fusions immobilized on GSH-sepharose beads; parent: est. 100; read off a plot

Chain of UniProt O43747 (O43747 whole entry, looked up, one chain of several): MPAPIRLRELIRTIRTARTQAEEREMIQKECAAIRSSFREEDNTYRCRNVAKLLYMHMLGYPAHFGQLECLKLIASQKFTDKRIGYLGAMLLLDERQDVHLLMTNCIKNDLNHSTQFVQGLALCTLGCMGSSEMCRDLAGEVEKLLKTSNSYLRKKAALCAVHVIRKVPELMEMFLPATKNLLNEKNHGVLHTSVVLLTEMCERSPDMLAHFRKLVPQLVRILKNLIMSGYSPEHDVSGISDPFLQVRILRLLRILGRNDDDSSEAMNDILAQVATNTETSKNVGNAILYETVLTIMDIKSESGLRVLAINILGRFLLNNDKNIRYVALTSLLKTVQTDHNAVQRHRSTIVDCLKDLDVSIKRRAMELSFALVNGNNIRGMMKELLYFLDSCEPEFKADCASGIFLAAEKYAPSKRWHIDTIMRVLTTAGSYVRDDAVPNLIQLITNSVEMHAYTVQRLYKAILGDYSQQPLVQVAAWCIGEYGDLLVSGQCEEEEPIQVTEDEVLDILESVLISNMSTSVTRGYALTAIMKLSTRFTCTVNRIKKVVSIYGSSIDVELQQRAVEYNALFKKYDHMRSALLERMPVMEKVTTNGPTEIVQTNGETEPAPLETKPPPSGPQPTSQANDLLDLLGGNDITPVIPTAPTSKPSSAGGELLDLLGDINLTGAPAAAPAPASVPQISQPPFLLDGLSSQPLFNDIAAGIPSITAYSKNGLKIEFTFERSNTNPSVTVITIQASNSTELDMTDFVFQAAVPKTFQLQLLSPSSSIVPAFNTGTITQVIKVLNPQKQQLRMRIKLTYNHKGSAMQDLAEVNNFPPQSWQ

How did the percent of parent turn out when “GST-Nef, wild-type HIV-1 NL4.3 Nef fused to glutathione-S-transferase L164A; L165A” was run?
The percent of parent was 17 % of control.

“GST-Nef, wild-type HIV-1 NL4.3 Nef fused to glutathione-S-transferase P129A; G130A” was tested. Which percent of parent did it give?
The percent of parent was 74 % of control.

Which percent of parent does the source give for “GST-Nef, wild-type HIV-1 NL4.3 Nef fused to glutathione-S-transferase P131A; G132A” here?
Its percent of parent is 75 % of control.
